Literature values as cited in PMC6953019.

Target: TβRII (Homo sapiens) (UniProt P37173)
Assay: SPR

Chain of TGFβ2 (P61812 303-414): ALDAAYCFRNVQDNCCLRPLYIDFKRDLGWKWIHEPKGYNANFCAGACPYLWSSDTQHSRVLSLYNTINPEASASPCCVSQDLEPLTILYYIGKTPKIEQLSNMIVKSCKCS
Chain of TβRII (Homo sapiens) (P37173 23-166): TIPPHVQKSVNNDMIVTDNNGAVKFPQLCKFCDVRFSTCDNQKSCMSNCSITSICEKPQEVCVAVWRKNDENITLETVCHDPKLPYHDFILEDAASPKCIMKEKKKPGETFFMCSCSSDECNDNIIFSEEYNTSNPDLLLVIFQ

TGFβ2 (from UniProt P61812)
Kd: 5 nM
